Laboratory results from US20230331827A1, “POTASSIUM CHANNEL INHIBITORS” (priority 2017, published 2023).

Tests used:
[1] = tested on: activated T cells in PBMCs; test: Cytokine and Granzyme-B secretion by anti-CD3 activated PBMCs (Luminex); type: cell-based; details: 100 nM, 72 hours, 5 donors, compared to KB_A12
Description: Methods for measuring cytokine release from T cells are well known to those skilled in the art (eg Tarcha et al, (2012) J Pharmacology and Experimental Therapeutics, 342 p642-653). Peripheral blood mononuclear cells (PBMCs) were isolated from 5 healthy donors and were simulated by culturing in 96-well plates pre-coated with 500 ng/ml of the anti-CD3 antibody OKT3 (ebioscience, Cat. No. 16-0037-85). PBMCs were suspended at 2 × 10^6 cells/ml and 100 ul of cells suspension mixed with 100 ul of test sample (KB_A12_ShK) or positive control (free ShK toxin, Alomone labs, STS-400) or negative control (parental KnotBody KB_A12) at a final concentration of 100 nM. (Samples were in triplicate for KB_A12_ShK or duplicate for KB_A12 and free ShK). Cells were incubated at 37° C. for 72 hours, centrifuged at 1500 rpm for 5 mins at room temperature before removing 150 ul of supernatant. After 72 hours incubation, the concentration of cytokines and Granzyme-B was determined using a Luminex bead based assay according to manufacturers instructions (Thermo Fisher).

human Kv1.1 (huKv1.1) = molecular target: T1, human Kv1.1 (huKv1.1) (Homo sapiens, UniProt Q09470); test: QPatch automated patch-clamp, CHO-S cells expressing huKv1.1 (Examples 20-21); type: cell-based; details: four-point curves of FIG. 33, Table E20
T1 construct: expressed in transfected cells; host or cells: Freestyle CHO-S
Description: 1. The effect of these KnotBodies on cells expressing human Kv1.1 (huKv1.1) and Kv1.3 (huKv1.3) channels was assessed using QPatch automated patch-clamp platform (Sophion).
To generate huKv1.1 expressing cells, Freestyle CHO-S cells (Cat. no. R80007, Life Technologies, California, USA) were transfected with pINT50-Tr plasmid encoding huKv1.1 gene using the MaxCyte STX (MaxCyte) transfection system. In pINT50-Tr plasmid, huKv1.1 gene is under the control of a CMV promoter. 64 µg of the plasmid DNA were added to 400 µl of Freestyle CHO-S cells (at a density of 1 × 10^8 cells/ml) in Electroporation Buffer (GE Healthcare Life Sciences, Cat. no. EPB1) in an OC-400 processing assembly (MaxCyte). Following electroporation, the cells were transferred to a well of a 24-well plate containing 200 U/ml DNAse I (Sigma, D4263) and incubated for 20 minutes at 37° C. and 5% CO2. The cells were then transferred into a 100 ml shaker flask containing 20 ml of CD Opticho Media (Thermo Fisher Scientific, Cat.No 12681-011,) supplemented with 8 mM L-Glut (Thermo Fisher Scientific, cat. no. 25030-024). The cells were incubated for 24 hours at 37° C. and 5% CO2 (and 75% humidity and shaking at 800 rpm) prior to testing using automated patch clamp electrophysiology.
For the testing of Kv1.1 and Kv1.3, CHO-S expressing huKv1.1 (described above) or CHO cells stably expressing huKv1.3 (Charles River Lab) were analysed using the QPatch electrophysiology assay in the presence or absence of the KnotBody fusions. Internal and external physiological solutions were freshly prepared prior to the assay. The extracellular solution contained 145 mM NaCl, 4 mM KC1, 2 mM CaC12, 1 mM MgC12, 10 mM HEPES and 10 mM glucose; the pH was adjusted to 7.4 with NaOH; the osmolarity was ~ 305 mOsm/L. The intracellular solution contained: KF (120 mM), KC1 (20 mM), HEPES (10 mM) EGTA (10 mM); the pH was adjusted to 7.2 with KOH; osmolarity was ~ 300 mOsm/L.
A series of depolarising voltage (channel activating) pulses were used to monitor the channel currents upon adding control (extracellular solution) to define a control baseline of current activity. To these measured control currents four, ascending concentrations of KnotBodies (including previously described KB_A12_ShK and KB_A12_KTX described in Example 8) or parental antibody isotypes (control molecules) were applied to the external bathing solution. KnotBodies KB_A12 and KB_A07 (EETI-II fusions) were used as isotype controls for the testing. From a holding voltage of -80 mV a depolarising, activating voltage pulses of […] were applied for 300 ms, every 10 seconds. The elicited, maximum outward current values measured during the activating step for each solution exchange period, averaged (n = 3 - 6 for each concentration applied) and plotted as concentration-response curves (see FIG. 33). From these concentration-response curves IC50 values were calculated (see Table E20).
For the testing of Kv1.1 and Kv1.3, CHO-S expressing huKv1.1 (see Example 20 and below) or CHO cells stably expressing huKv1.3 (Charles River Lab) were analysed using the QPatch electrophysiology assay in the presence or absence of the KnotBody fusions - see details in Examples 19 and 20.
In addition to the CHO-S transiently expressing huKv1.1 (described in Example 20), CHO-S cells with poly-clonal stable expression of huKv1.1 cells were also made and used in the QPatch electrophysiology assay. To generate the polyclonal stable huKv1.1 cells from the transiently expressing cells described in Example 20, after a 24 hour incubation period the selection antibiotic Puromycin (catalogue no. A1 1138-03, Life Technologies, California, USA) was added to culture media. Then, for the first 14 days puromycin was at 10 µg ml-1 media; at days 15-28 puromycin was at 20 µg ml-1 media. Cell cultures were seeded at 2.5 x 10^5 cells ml^-1 into fresh culture media and puromycin twice per week through this selection growth period. […]

T1 sequence (Q09470 whole entry): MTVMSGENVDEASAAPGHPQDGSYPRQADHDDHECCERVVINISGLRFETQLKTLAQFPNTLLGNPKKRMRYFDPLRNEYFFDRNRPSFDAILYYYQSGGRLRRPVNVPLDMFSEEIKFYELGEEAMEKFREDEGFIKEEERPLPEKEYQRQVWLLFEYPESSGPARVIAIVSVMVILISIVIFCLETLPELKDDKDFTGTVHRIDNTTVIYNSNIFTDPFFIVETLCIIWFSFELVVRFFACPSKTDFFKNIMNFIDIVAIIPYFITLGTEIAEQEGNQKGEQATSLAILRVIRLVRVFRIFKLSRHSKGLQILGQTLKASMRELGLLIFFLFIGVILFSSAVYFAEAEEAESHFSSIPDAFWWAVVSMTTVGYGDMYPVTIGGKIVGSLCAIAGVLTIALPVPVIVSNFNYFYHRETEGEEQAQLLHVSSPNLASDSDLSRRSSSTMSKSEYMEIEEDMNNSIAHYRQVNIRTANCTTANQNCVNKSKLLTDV

B1: KB_A12_ShK: ShK toxin in VL CDR2 of KB_A12, IgG1 (antibody, V domains shown)
VH: EVQLVESGGGLVRPGGSLRLSCAASGFTFSSYAMSWVRQAPGKGLEWVSAISGSGGSTYYADSVKGRFTISRDNTKNSLYLQMTSLRADDTAFYYCVKDFGPGYGTGWFDYWGPGTLVTVSS
VL: QSVLTQPPSVSEAPRQRVTITCSGSSSNIGNNAVNWYQQLPGKAPKLLIYAAGRRSCIDTIPKSRCTAFQCKHSMKYRLSFCRKTCGTCANSGVSDRFSAAKSGTSASLAINGLRSEDEADYYCAAWDDSLNGYVFGTGTKLTVLG
[1]
  Secretion of Granzyme B: reduced
  Secretion of Interferon gamma: reduced
  Secretion of TNF-alpha: reduced
  Secretion of interleukin-17A: reduced
Human Kv1.1 (huKv1.1)
  IC50: 40 nM
